The text below walks through data of PMC11246429 (2024).

The term Kd denotes the equilibrium constant for the complex coming apart.

For assay [1], the target named is AP180 segment 471–700 (rat). In words: NMR titration; unlabeled AP2α titrated into 15N labeled AP180 (50 μM AP180 471–700, 90 μM AP180IDR); 1H-15N HSQC and 15N R1ρ; residue-wise KD from R1ρ against AP2α concentration; NMR buffer 50 mM Na-phosphate pH 6, 150 mM NaCl, 2 mM DTT, 25 °C.
A further assay addresses AP180 399-598 (rat). As to the kind of experiment: ITC; AP2β2 mutants titrated into 0.04 mM AP180 399-598 in the cell; 25 °C; 150 mM NaCl, 50 mM Na-phosphate, 0.2 mM TCEP, pH 7.5; 1:1 binding model. Background: In ITC the heat of successive injections is recorded.
The target in assay [2] is AP180 IDR (residues 281–898 of AP180) (rat). As to the kind of experiment: NMR titration; unlabeled CHCTD (in 50 mM Na-phosphate pH 7.5, 150 mM NaCl, 2 mM DTT) titrated into 15N labeled AP180 in NMR buffer (pH 6); 1H-15N HSQC and 15N R1ρ; residue-wise KD from a linear fit of R1ρ against CHCTD concentration under the assumption of weak binding; 25 °C.
Assay [3] deals with AP180 segment 399–598 (rat). In words: NMR CPMG relaxation dispersion; 100 μM 15N AP180 399–598 with 10 μM unlabeled AP2β2; 600 and 850 MHz; 22 residues fitted together with a two-state exchange model (ChemEx); KD calculated from pB under the assumption of 1:1 stoichiometry.
Assay [4] addresses AP180 segment 399–598 (rat). In words: ITC; 0.03 mM AP180 construct in the cell (0.04 mM AP180 399–598 for the AP2β2 mutants), 2 μl steps of 0.3 mM AP2β2; 25 °C; 150 mM NaCl, 50 mM Na-phosphate, 0.2 mM TCEP, pH 7.5; 1:1 binding model.
The target of assay [5] is AP180 430–500 (extended interaction motif, EIM) (rat). Described as above.
Assay [6] has as its target AP180 IDR (residues 281–898 of AP180) (rat). The description is as above.
Assay [7] has as its target T1, AP2 β2-appendage domain with linker (residues 617–951) (bovine, UniProt Q08DS7 617-951).
T1 chain: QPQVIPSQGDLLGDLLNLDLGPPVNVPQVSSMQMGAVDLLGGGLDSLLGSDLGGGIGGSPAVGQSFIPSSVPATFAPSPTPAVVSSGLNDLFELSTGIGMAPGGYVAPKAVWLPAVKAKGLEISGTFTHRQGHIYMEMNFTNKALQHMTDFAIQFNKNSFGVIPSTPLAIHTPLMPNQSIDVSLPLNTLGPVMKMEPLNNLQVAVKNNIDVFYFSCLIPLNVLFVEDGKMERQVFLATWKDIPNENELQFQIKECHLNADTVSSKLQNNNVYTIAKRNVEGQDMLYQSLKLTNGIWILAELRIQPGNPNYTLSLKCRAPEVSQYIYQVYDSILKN
As to the kind of experiment: ITC.

AP180 segment 471–700 (rat), sequence (Q05140 whole entry): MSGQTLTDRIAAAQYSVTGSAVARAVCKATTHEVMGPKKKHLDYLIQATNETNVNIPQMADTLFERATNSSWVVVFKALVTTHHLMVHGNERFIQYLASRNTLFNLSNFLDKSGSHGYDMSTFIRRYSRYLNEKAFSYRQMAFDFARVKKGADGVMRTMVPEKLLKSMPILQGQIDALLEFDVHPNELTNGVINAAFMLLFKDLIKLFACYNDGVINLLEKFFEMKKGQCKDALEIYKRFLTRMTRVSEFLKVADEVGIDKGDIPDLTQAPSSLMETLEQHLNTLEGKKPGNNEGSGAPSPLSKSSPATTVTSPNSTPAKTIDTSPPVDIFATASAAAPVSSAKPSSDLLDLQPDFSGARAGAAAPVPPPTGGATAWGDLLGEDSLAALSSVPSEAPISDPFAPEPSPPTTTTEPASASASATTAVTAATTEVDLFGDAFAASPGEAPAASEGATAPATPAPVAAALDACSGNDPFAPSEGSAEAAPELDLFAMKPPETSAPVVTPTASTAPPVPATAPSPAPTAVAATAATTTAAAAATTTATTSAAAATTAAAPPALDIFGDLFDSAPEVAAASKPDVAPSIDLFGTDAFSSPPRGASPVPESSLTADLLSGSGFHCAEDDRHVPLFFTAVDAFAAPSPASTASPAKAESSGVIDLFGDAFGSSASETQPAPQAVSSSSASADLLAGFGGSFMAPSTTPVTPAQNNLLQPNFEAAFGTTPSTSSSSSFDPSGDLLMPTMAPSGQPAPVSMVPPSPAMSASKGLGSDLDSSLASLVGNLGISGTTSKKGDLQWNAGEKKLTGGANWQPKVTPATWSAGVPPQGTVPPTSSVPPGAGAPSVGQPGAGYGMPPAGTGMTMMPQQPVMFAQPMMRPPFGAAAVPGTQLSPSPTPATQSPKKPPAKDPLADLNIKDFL

In assay [1], “AP2 α-appendage domain (residues 701–938) (from UniProt P17427 701-938) (domain or fragment)” yielded a residue-wise KD (first residue of Fig. 3D) of 144 µM, a residue-wise KD (second residue of Fig. 3D) of 380 µM and a residue-wise KD (third residue of Fig. 3D) of 414 µM.

Turning to AP2β2 K842E (domain or fragment), the Kd in the assay with AP180 399-598 (rat) was determined as 7.8 µM.

AP2β2 Y815A (domain or fragment) registered a dissociation constant (Kd) in the assay with AP180 399-598 (rat) of 4.9 µM.

The molecule AP2β2 Y888A (domain or fragment) had an equilibrium dissociation constant (Kd) with AP180 399-598 (rat) of 7.3 µM.

In assay [2], “clathrin heavy chain terminal domain (residues 1–363) (from UniProt P49951 1-363) (domain or fragment)” had a residue-wise KD (first residue of Fig. 2E) of 177 µM, a residue-wise KD (fourth residue of Fig. 2E) of 700 µM, a residue-wise KD (second residue of Fig. 2E) of 294 µM and a residue-wise KD (third residue of Fig. 2E) of 549 µM.

B1: AP2 β2-appendage domain with linker (residues 617–951) (domain or fragment)
chain: T1 chain
B1: the dissociation constant Kd in assay [3] is 10 µM; in assay [4], 5.1 µM; in assay [5] it was 2.5 µM; in assay [6] it was 6.97 µM. In addition, the exchange rate kex (kon [AP2β2] + koff) in assay [3] is 662 s⁻¹. The percentage of bound population of AP180 (10% AP2β2) in assay [3] was 8.9%.

B2: AP180 IDR (residues 281–898 of AP180) (domain or fragment)
chain: GHMHLNTLEGKKPGNNEGSGAPSPLSKSSPATTVTSPNSTPAKTIDTSPPVDIFATASAAAPVSSAKPSSDLLDLQPDFSGAAAGAAAPVPPPTGGATAWGDLLGEDSLAALSSVPSEAPISDPFAPEPSPPTTTTEPASASASATTAVTAATTEVDLFGDAFAASPGEAPAASEGATAPATPAPVAAALDACSGNDPFAPSEGSAEAAPELDLFAMKPPETSAPVVTPTASTAPPVPATAPSPAPTAVAATAAATTTTTAAAATTTATTSAAAAATAAAPPALDIFGDLFDSAPEVAAASKPDVAPSIDLFGTDAFSSPPRGASPVPESSLTADLLSVDAFAAPSPASTASPAKAESSGVIDLFGDAFGSSASETQPAPQAVSSSSASADLLAGFGGSFMAPSTTPVTPAQNNLLQPNFEAAFGTTPSTSSSSSFDPSGDLLMPTMAPSGQPAPVSMVPPSPAMSASKGLGSDLDSSLASLVGNLGISGTTSKKGDLQWNAGEKKLTGGANWQPKVTPATWSAGVPPQGTVPPTSSVPPGAGAPSVGQPGAGYGMPPAGTGMTMMPQQPVMFAQPMMRPPFGAAAVPGTQLSPSPTPATQSPKKPPAKDPLADLNIKDFLLEHHHHHH
The molecule B2 yielded a Kd in assay [7] of 4.2 µM.
